Assay results: patent publication US8440199B2, “Methods for mobilizing mesenchymal stem cells in a patient” (Imperial Innovations Limited, priority 2007, dated 2013)
Read-outs that look alike come from different tables or passages of the source.

Columns and labels:
EPCs [1] = assay: In situ perfusion of mouse hind limb, CFU-EPC in perfusate; format: in vivo, mice; conditions: for EPC mobilization from the bone marrow: agent alone (CXCR4 antagonist 0.1 mM infused 10 min; G-CSF or VEGF pre-treatment 4 days), FIG. 21c
HPCs [2] = assay: In situ perfusion of mouse hind limb, CFU-HPC in perfusate; conditions: for HPC mobilization from the bone marrow: FIG. 21b
Procedure: 24 hours after the last injection, mice underwent perfusion of the right hind limb. […] The hind limb was then perfused for a further 50 minutes to allow collection of b, CFU-HPC; c, CFU-EPC; or d, CFU-SPC; via the femoral vein. CFU-HPC, CFU-EPC, and CFU-SPC are shown as total number of colonies collected in the perfusate. n=5-8 mice per group. Data: means±s.e.m. *: P<0.05, **: P<0.01, ***: P<0.001 between selected groups.
Female BALB/c mice were purchased from Harlan (Oxford, United Kingdom).
(§4) On day 5 following pre-treatment of growth factors, mice were anaesthetized and the femoral artery and vein exposed. The hind limb was isolated by occlusion of the external iliac artery, superficial epigastric and muscular branch. Polyethylene cannulae (Portex, London, UK) were immediately inserted into the femoral artery and vein as previously described (Martin et al., 2003; 2006; Wengner et al., 2008). Perfusion buffer was infused via the arterial cannula and removed from the venous cannula using a Minipuls peristaltic pump (Anachem, Luton, UK). The hind limb was perfused for an initial 2 minutes to remove remaining blood from the vasculature and then perfused for a further 60 min with vehicle alone or the CXCR4 antagonist (AMD3100, 0.1 mM), infused over the first 10 minutes using an infusion/withdrawal pump (Harvard Instruments, U.K.).
The perfusate was centrifuged and re-suspended in DMEM+20% FBS. […] Bone marrow, perfusate and lysed blood were then used for assays outlined below to enumerate HPCs (CFU-HPC), EPCs (CFU-EPC), SPCs (CFU-F).
5×10^4 cells were added to Methocult medium (Stem cell technologies) supplemented with specific cytokines and growth factors to enable formation of CFU-HPC. Mobilized cells were incubated for 11 days before quantification. Further characteristics of CFU-HPC colonies were obtained on day 12, namely the mean number of cells in each colony, and the mean colony area. The mean colony area (mm^2) was determined by image analysis using Scion Image analysis program (NIH). The cell number was determined by diluting colonies grown in Methocult into DMEM (to disperse the methylcellulose) and aspirating the colonies into a single cell suspension before obtaining a cell count.
(§5) The total number of colony forming units mobilized was calculated according to the number of colonies per plate×by the total number of leukocytes mobilized/number of cells seeded.

[3] = system: haematopoietic progenitor cells (HPC); assay: Example 1: HPC mobilisation, hind limb bone marrow perfusion and circulating blood, CFU-HPC assay; format: in vivo, mice
Procedure: Assay was performed in duplicate Mobilised cells were maintained in semi-solid methylcellulose cultures for 11 days before quantification of the number of CFU-HPCs.

EPCs [4] = assay: Circulating CFU-EPC in blood; format: in vivo, mice; conditions: FIG. 20c
[5] = system: endothelial progenitor cells (EPC); assay: Example 1: EPC mobilisation, hind limb bone marrow perfusion and circulating blood, CFU-EPC assay; conditions: for EPC mobilization: perfusate and blood
Procedure: 24 hours after the last injection, mice were administered a CXCR4 antagonist (AMD3100, 5 mg/kg i.p), or vehicle and blood was collected via cardiac puncture 1 hour later for enumeration of circulating leukocyte, HPC, EPC and MSC levels.
On day 5, mice were anaesthetized with urethane (25% 0.2 ml i.p.) and the femoral artery and vein exposed. The hind limb was isolated by occlusion of the external iliac artery, superficial epigastric and muscular branch with 5/0 braided silk suture. Polyethylene cannulae (0.61 mm OD, Portex, London, UK) were immediately inserted into the femoral artery and vein and tied in place with 5/0 braided silk suture. Perfusion buffer (modified Krebs-Ringer bicarbonate buffer) at 37° C. was infused (0.15 ml/min) via the arterial cannula and removed from the venous cannula using a Minipuls peristaltic pump (Anachem, Luton, UK). The hind limb was perfused for an initial 10 minutes to remove remaining blood from the vasculature and then perfused for a further 60 min with vehicle alone or AMD3100, a CXCR4 antagonist (0.1 mM, Sigma UK) infused over the first 10 minutes using an infusion/withdrawal pump (Harvard Instruments, U.K.).
The perfusate was collected and centrifuged and the cell pellet re-suspended in Dulbecco's modified eagles medium (DMEM) with 20% fetal bovine serum (FBS). A total cell count was performed before the perfusate was lysed for red blood cells, re-suspended again in DMEM (20% FBS) and used for assays outlined below to enumerate haematopoietic progenitor cells (CFU-HPC), endothelial progenitor cells (CFU-EPC), and leukocyte populations.
In some experiments blood was taken to enumerate HPCs, EPCs and leukocytes. A total cell count was performed on citrated blood before being lysed for red blood cells and re-suspended in DMEM (20% FBS).
Assay was performed in duplicate. Dishes were incubated for 7 days before media was changed, and then incubated for a further 14 days before the enumeration of late outgrowth endothelial progenitor cells. Early outgrowth endothelial progenitor cells were enumerated on day 5.
In each of the above assays, the total number of colony forming units mobilised is calculated according to the number of colonies per plate×by the total number of leukocytes mobilized/number of cells seeded.
Mice were anaesthetised and the femoral artery and vein was cannulated such that the femoral bone marrow could be perfused (Martin et al, (2006) Br. J. Haem. 134: 326-329). […]
Mice were injected i.p. with the CXCR4 antagonist, AMD3100, (or vehicle control) and 1 h later the mice were killed. Blood was collected by cardiac puncture and stem cell numbers in the blood were determined. […]

HPCs [6] = conditions: cited from earlier work
SPCs [7] = assay: In situ perfusion of mouse hind limb, CFU-SPC in perfusate; format: in vivo, mice; conditions: for SPC mobilization from the bone marrow: FIG. 21d
Procedure: a, overview of procedures set up for identifying the direct mobilization of progenitor cells from the femoral bone marrow. […] 24 hours after the last injection, mice underwent perfusion of the right hind limb. CXCR4 antagonist (AMD3100 0.1 mM, closed bars) or vehicle (PBS, open bars) were then infused directly into the femoral artery for 10 minutes. The hind limb was then perfused for a further 50 minutes to allow collection of b, CFU-HPC; c, CFU-EPC; or d, CFU-SPC; via the femoral vein. CFU-HPC, CFU-EPC, and CFU-SPC are shown as total number of colonies collected in the perfusate. n=5-8 mice per group. Data: means±s.e.m. *: P<0.05, **: P<0.01, ***: P<0.001 between selected groups.
(§6) 24 hours after the last injection, mice were administered a CXCR4 antagonist (AMD3100, 5 mg/kg i.p), KC (30 μg/kg i.v.) or vehicle and blood was collected via cardiac puncture 60 minutes later for enumeration of circulating leukocyte, HPC, EPC, and stromal progenitor cell levels.
as §4
(§7) The perfusate was centrifuged and re-suspended in DMEM+20% FBS. In some experiments citrated blood was obtained via cardiac bleed and lysed for red blood cells. Bone marrow and perfusate cytospins, and blood smears were stained using DiffQuik for the enumeration of mononuclear cells, eosinophils, and neutrophils. Bone marrow, perfusate and lysed blood were then used for assays outlined below to enumerate HPCs (CFU-HPC), EPCs (CFU-EPC), SPCs (CFU-F).
(§8) 5×10^5 cells were added to Mesencult media including supplements (Stemcell Technologies). Dishes were incubated for 7 days before media was changed, and then incubated for a further 14 days before the enumeration of SPC colonies (CFU-F).
as §5

SPCs [8] = assay: Circulating CFU-SPC (CFU-F) in blood; conditions: agent alone (AMD3100 5 mg/kg i.p., blood at 60 min; G-CSF once daily for 4 days), FIG. 20d
Procedure: 24 hours after the last injection, mice were administered a CXCR4 antagonist (AMD3100 5 mg/kg i.p, closed bars) or vehicle (PBS, open bars). 60 minutes later, blood was taken for analysis of circulating: b, CFU-HPC; c, CFU-EPC; and d, CFU-SPC. CFU-HPC, CFU-EPC, and CFU-SPC are shown as number of colonies per ml blood. n=5-8 mice per group. Data: means±s.e.m. *: P<0.05, **: P<0.01, ***: P<0.001 between selected groups.
(§9) Female BALB/c mice were purchased from Harlan (Oxford, United Kingdom). […] 24 hours after the last injection, mice were administered a CXCR4 antagonist (AMD3100, 5 mg/kg i.p), KC (30 μg/kg i.v.) or vehicle and blood was collected via cardiac puncture 60 minutes later for enumeration of circulating leukocyte, HPC, EPC, and stromal progenitor cell levels.
The perfusate was centrifuged and re-suspended in DMEM+20% FBS. In some experiments citrated blood was obtained via cardiac bleed and lysed for red blood cells. Bone marrow and perfusate cytospins, and blood smears were stained using DiffQuik for the enumeration of mononuclear cells, eosinophils, and neutrophils. […]
The total number of colony forming units mobilized was calculated according to the number of colonies per plate×by the total number of leukocytes mobilized/number of cells seeded. […]

[9] = system: mesenchymal stem cells (MSC); assay: Example 1: MSC mobilisation, hind limb bone marrow perfusion and circulating blood, CFU-MSC assay; format: in vivo, mice; conditions: perfusate and blood, FIGS. 9-12
Procedure: 4×10^5 cells were added to 3 ml Mesencult media including supplements (05501 and 05502 Stemcell Technologies). Assay was performed in duplicate.

HPCs [10] = assay: Circulating CFU-HPC in blood; conditions: FIG. 20b
Procedure: a, Experimental protocol. […] 24 hours after the last injection, mice were administered a CXCR4 antagonist (AMD3100 5 mg/kg i.p, closed bars) or vehicle (PBS, open bars). 60 minutes later, blood was taken for analysis of circulating: b, CFU-HPC; c, CFU-EPC; and d, CFU-SPC. CFU-HPC, CFU-EPC, and CFU-SPC are shown as number of colonies per ml blood. n=5-8 mice per group. Data: means±s.e.m. *: P<0.05, **: P<0.01, ***: P<0.001 between selected groups.
as §6
In some experiments citrated blood was obtained via cardiac bleed and lysed for red blood cells. […] Bone marrow, perfusate and lysed blood were then used for assays outlined below to enumerate HPCs (CFU-HPC), EPCs (CFU-EPC), SPCs (CFU-F).
5×10^4 cells were added to Methocult medium (Stem cell technologies) supplemented with specific cytokines and growth factors to enable formation of CFU-HPC. Mobilized cells were incubated for 11 days before quantification.
as §5

CD34^+ VEGFR2^+ EPCs = assay: PI staining, cell cycle status of CD34+ VEGFR2+ EPCs; format: in vivo, mice; conditions: treated 4 days, FIG. 25d
Procedure: (§1) For flow cytometric analysis, cells were re-suspended in FACS buffer. To identify neutrophils in the bone marrow, surface expression of the granulocyte marker Ly-6G/Ly6C (Gr-1) was determined. Neutrophils were identified as Gr-1^high positive cells with a characteristic high side scatter profile. HPCs residing in the BM were selected as being negative for lineage (Lin^−) markers: CD3e, CD11b, CD45R, Ly-76, and Gr-1 and positive for Sca-1 (Lin^− Sca-1^+ cells) (Gerber et al., 2002; Uchida, et al., 1997). EPCs residing in the BM were selected as being positive for both CD34 and VEGFR2 (CD34^+ VEGFR2^+ cells) (Asahara et al., 1997; Yoon et al., 2005). […] Samples were then washed and then quantified on a FACSAria cell sorter (BD Biosciences, Oxford, United Kingdom) and analysed using FACSDiva software.
(§2) Lin^− Sca-1^+ cells and CD34^+ VEGFR2^+ cells were analysed to determine their cell cycling status using a propidium iodide (PI) stain. […] A dotplot of PI-Width against PI-Area was recorded. Aggregates of cells were detected as cells having a larger PI-W profile and were not included in the gate. […] To calculate the percentage of cells undergoing active cell cycling, a marker was set to exclude the G0/G1 peak and the percentage of cells in S/G2/M was calculated.

EPCs [11] = assay: CFU-EPC bone marrow frequency; format: in vivo, mice; conditions: treated over 4 days, compared to controls, FIG. 22b
Lin^− Sca-1^+ HPCs = assay: PI staining, cell cycle status of Lin- Sca-1+ HPCs; format: in vivo, mice; conditions: treated 4 days, FIG. 25c
Procedure: as §1, §2

EPCs [12] = assay: In vitro chemotaxis of bone marrow EPCs towards SDF-1α; format: cell-based; conditions: bone marrow cells of mice treated 4 days; 30 nM SDF-1α, FIG. 23e, 23g
Procedure: (§3) Bone marrow was aspirated on day 5 and harvested cells were used to determine a, SDF-1α levels in bone marrow supernatant as determined by ELISA; b, % of bone marrow Lin^− Sca-1^+ cells expressing CXCR4; and c, % of bone marrow CD34^+ VEGFR2^+ cells expressing CXCR4. Harvested cells were also utilized in the following chemotaxis assays: d, number of HPCs; and e, EPCs undergoing chemotaxis towards 30 nM SDF-1α. Cells taken from bone marrow of mice treated with G-CSF (closed bars) or vehicle (PBS, open bars). f, number of HPCs; and g, EPCs undergoing chemotaxis towards 30 nM SDF-1α.

HPCs [13] = assay: In vitro chemotaxis of bone marrow HPCs towards SDF-1α; format: cell-based; conditions: bone marrow cells of mice treated 4 days; 30 nM SDF-1α, FIG. 23d, 23f
Procedure: as §3

HPCs and MSCs = conditions: Ripa et al. (2007) Circulation 116; cited from earlier work
neutrophils = assay: Leukocyte counts of bone marrow; format: in vivo, mice; conditions: treated 4 days, compared to controls, FIG. 24f
Procedure: 24 hours later these mice underwent perfusion of the right hind limb. CXCR4 antagonist (AMD3100 0.1 mM, closed bars) or vehicle (PBS, open bars) were then infused directly into the femoral artery for 10 minutes. The hind limb was then perfused for a further 50 minutes to allow collection of a, neutrophils via the femoral vein. […] The hind limb was again perfused for a further 50 minutes to allow b, collection of neutrophils.
The perfusate was centrifuged and re-suspended in DMEM+20% FBS. […] Bone marrow and perfusate cytospins, and blood smears were stained using DiffQuik for the enumeration of mononuclear cells, eosinophils, and neutrophils.

SPCs [14] = assay: CFU-SPC bone marrow frequency; format: in vivo, mice; conditions: treated over 4 days, compared to controls, FIG. 22c
Procedure: (§10) 24 hours after the last injection, bone marrow was aspirated for the enumeration of a, CFU-HPC bone marrow frequency; b, CFU-EPC bone marrow frequency; and c, CFU-SPC bone marrow frequency.
as §9, §7, §8

CXCR4 = assay: Flow cytometry of CXCR4 expression on bone marrow HPCs and EPCs; format: in vivo, mice; conditions: treated 4 days
Procedure: as §3
For flow cytometric analysis, cells were re-suspended in FACS buffer. To identify neutrophils in the bone marrow, surface expression of the granulocyte marker Ly-6G/Ly6C (Gr-1) was determined. Neutrophils were identified as Gr-1^high positive cells with a characteristic high side scatter profile. HPCs residing in the BM were selected as being negative for lineage (Lin^−) markers: CD3e, CD11b, CD45R, Ly-76, and Gr-1 and positive for Sca-1 (Lin^− Sca-1^+ cells) (Gerber et al., 2002; Uchida, et al., 1997). EPCs residing in the BM were selected as being positive for both CD34 and VEGFR2 (CD34^+ VEGFR2^+ cells) (Asahara et al., 1997; Yoon et al., 2005). Furthermore, neutrophils were stained for the surface expression of CXCR2, whilst Lin^− Sca-1^+ cells and CD34^+ VEGFR2^+ cells were stained for the cell surface expression of CXCR4. Samples were then washed and then quantified on a FACSAria cell sorter (BD Biosciences, Oxford, United Kingdom) and analysed using FACSDiva software.

SDF-1α = SDF-1α ELISA on bone marrow supernatants; format: in vivo, mice; conditions: treated once daily for 4 days, FIG. 23a
Procedure: as §3
Supernatant from bone marrow aspirates was analyzed for SDF-1α content as per the recommended protocol for the capture and detection antibody (MAB350 and BAF310 respectively. RnD systems).

[15] = Total number of cells in the femurs; format: in vivo; conditions: treated over 4 days; not significantly different compared to control mice
Procedure: as §10, §6, §7

[16] = agent alone (CXCR4 antagonist 0.1 mM infused 10 min; G-CSF or VEGF pre-treatment 4 days), perfusate over 1 hour
[17] = agent alone (AMD3100 5 mg/kg i.p., blood at 60 min; G-CSF or VEGF once daily for 4 days)
[18] = agent alone (CXCR4 antagonist 0.1 mM infused 10 min; G-CSF or VEGF pre-treatment 4 days)
[19] = growth factor pre-treatment 4 days, then CXCR4 antagonist infused

## c1cc(CN2CCCNCCNCCCNCC2)ccc1CN1CCCNCCNCCCNCC1 [AMD3100, reference compound]
EPCs [1]
  EPC mobilization from the bone marrow: HPCs and EPCs, but not SPCs were mobilized
HPCs [2]; [16]
  HPC mobilization from the bone marrow: HPCs and EPCs, but not SPCs were mobilized
[3]; AMD3100 alone, 0.1 mM infused into hind limb, perfusate, FIG. 3
  HPCs mobilised (number): about 4000
EPCs [4]; [17]
  circulating numbers of EPCs: increased circulating numbers of HPCs and EPCs
[5]; AMD3100 alone, 0.1 mM infused into hind limb, perfusate, FIG. 5
  EPCs mobilised (number): ~400
[5]; agent alone, FIGS. 5 and 6
  EPC mobilization: stimulates the mobilization of EPCs
HPCs [6]; AMD3100 alone, mice and humans
  circulating numbers of HPCs: stimulates a rapid rise in circulating numbers of HPCs in both mice and humans
SPCs [7]; [18]
  SPC mobilization from the bone marrow: HPCs and EPCs, but not SPCs were mobilized
SPCs [8]
  circulating SPCs: SPCs were not detected in the blood
[9]; agent alone
  MSC mobilization: does not mobilize MSCs
HPCs [10]; [17]
  circulating numbers of HPCs: increased circulating numbers of HPCs and EPCs

B1: G-CSF: Granulocyte-colony stimulating factor, recombinant murine cytokine from PeproTech (protein, UniProt P09920 31-208, looked up)
Granulocyte …: VPLVTVSALPPSLPLPRSFLLKSLEQVRKIQASGSVLLEQLCATYKLCHPEELVLLGHSLGIPKASLSGCSSQALQQTQCLSQLHSGLCLYQGLLQALSGISPALAPTLDLLQLDVANFATTIWQQMENLGVAPTVQPTQSAMPAFTSAFQRRAGGVLAISYLQGFLETARLALHHLA
CD34^+ VEGFR2^+ EPCs
  percentage of CD34+ VEGFR2+ EPCs in S/G2/M phase of the cell-cycle: does not stimulate entry
EPCs [1]
  EPC mobilization from the bone marrow: enhanced the basal rate of HPC and EPC egress from the bone marrow
EPCs [1]; growth factor (50 nM) infused into femoral artery for 10 minutes, alone, FIG. 31b
  EPC mobilization, acute administration: mobilized both HPCs and EPCs
EPCs [11]
  frequency/number of EPCs in the bone marrow: significant reduction in the number of bone marrow EPCs
Lin^− Sca-1^+ HPCs
  percentage of Lin- Sca-1+ HPCs in S/G2/M phase of the cell-cycle: does not stimulate entry
HPCs [2]; [16]
  HPC mobilization from the bone marrow: enhanced the basal rate of HPC and EPC egress from the bone marrow
HPCs [2]; growth factor (50 nM) infused into femoral artery for 10 minutes, alone, FIG. 31a
  HPC mobilization, acute administration: mobilized both HPCs and EPCs
HPCs [2]; [19]
  HPC mobilization from the bone marrow: synergistic mobilization of HPCs
[3]; G-CSF or VEGF 2.5 μg on 4 consecutive days, then AMD3100 (0.1 mM infusion or 5 mg/kg i.p.), perfusate and blood, FIGS. 1-4
  HPC mobilization: acts synergistically with AMD3100 to mobilize HPCs
EPCs [4]; growth factor pre-treatment over 4 days, then CXCR4 antagonist AMD3100 5 mg/kg i.p.
  circulating numbers of EPCs: no such synergism (or even additive effect) was apparent for EPC mobilization
EPCs [12]
  EPC chemotaxis towards SDF-1α: further increased migration of HPCs and EPCs to SDF-1α
HPCs [13]
  HPC chemotaxis towards SDF-1α: further increased migration of HPCs and EPCs to SDF-1α
HPCs and MSCs
  stem cell mobilisation: mobilises HPCs but causes a decrease in MSCs
neutrophils
  numbers of neutrophils in the bone marrow: increased numbers of neutrophils in the bone marrow
[5]; G-CSF or VEGF 2.5 μg on 4 consecutive days, then AMD3100, FIGS. 5-8
  EPC mobilization: not enhanced
SPCs [14]
  frequency/number of SPCs in the bone marrow: an increase in the number of SPCs
HPCs [6]; chronic G-CSF treatment combined with acute treatment with AMD3100
  HPC mobilization: synergistic effect
SPCs [7]; [18]
  SPC mobilization from the bone marrow: did not lead to the mobilization of SPCs
SPCs [7]; growth factor (50 nM) infused acutely, alone or in combination with CXCR4 antagonist, FIG. 31c
  SPC mobilization, acute administration: neither growth factor, when administered acutely or in combination with the CXCR4 antagonist led to mobilization of SPCs
SPCs [7]; [19]
  SPC mobilization from the bone marrow: no SPCs were mobilized
SPCs [8]
  circulating SPCs: no SPCs were detected
CXCR4; CD34+ VEGFR2+ bone marrow cells, FIG. 23c
  CXCR4 expression on EPCs: the expression of CXCR4 on EPCs was unchanged
CXCR4; Lin- Sca-1+ bone marrow cells, FIG. 23b
  CXCR4 expression on HPCs: significant reduction
SDF-1α
  SDF-1α levels in bone marrow supernatant: significant reduction in levels of SDF-1α
[9]; G-CSF or VEGF 2.5 μg on 4 consecutive days, then AMD3100
  MSC mobilization: does not mobilize MSCs
[9]; agent alone
  MSC mobilization: does not mobilize MSCs
[15]
  total number of cells in the femurs: 1.41±0.28×10^7 cells/femur
HPCs [10]; [17]
  circulating numbers of HPCs: increased circulating numbers of HPCs
HPCs [10]; growth factor pre-treatment over 4 days, then CXCR4 antagonist AMD3100 5 mg/kg i.p., blood at 60 min
  circulating numbers of HPCs: synergistically enhanced circulating numbers of HPCs
